Assay results: publication PMC11957191, “The PH domain in the ArfGAP ASAP1 drives catalytic activation through an unprecedented allosteric mechanism” (Research Square, 2025)

T1: ZA domain of ASAP1 (Arf GAP and ankyrin repeat domains), [431–724]ASAP1 (UniProt Q9QWY8 431-724)
T1 construct: Isotopically labelled for the PRE experiment; also called ΔPHZA; isolated ZA domain
T1 sequence (looked up): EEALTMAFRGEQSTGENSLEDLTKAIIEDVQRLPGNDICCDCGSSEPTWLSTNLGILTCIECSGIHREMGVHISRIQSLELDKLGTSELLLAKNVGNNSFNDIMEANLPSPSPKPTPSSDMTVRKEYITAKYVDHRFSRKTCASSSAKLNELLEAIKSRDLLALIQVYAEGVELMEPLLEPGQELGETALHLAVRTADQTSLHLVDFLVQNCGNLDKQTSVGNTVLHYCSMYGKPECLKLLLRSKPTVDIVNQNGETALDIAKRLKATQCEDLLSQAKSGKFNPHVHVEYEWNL

B1: ΔN14 ASAP1 PH domain, [339–451]ASAP1 (domain or fragment, UniProt Q9QWY8 339-451, looked up)
chain: GSEKKGFLLKKSDGIRKVWQRRKCAVKNGILTISHATSNRQPAKLNLLTCQVKPNAEDKKSFDLISHNRTYHFQAEDEQDYIAWISVLTNSKEEALTMAFRGEQSTGENSLED
notes: ASAP1 residues 339-451: PH domain without residues 325-338 (the first 14 residues of the wt PH construct); also called ΔN14PH; source: E. coli BL21 Star (DE3) (pET3a) or BL21 (DE3) (pET21), purified (HiTrap SP HP, SEC)
B2: Cys159-MTSL tagged myrArf1 (natural protein)
chain: not shown
modifications: N-myristoylated; MTSL nitroxide spin label on the native Cys159
notes: also called Arf (in the ZA PRE experiment); source: E. coli, co-expressed with yeast NMT, purified; spin-labelled with MTSL

Experiments:
[1] = molecular target: T2, myristoylated human Arf1 (myrArf1), GTP-bound form at a membrane surface (human, UniProt P84077 1-181, N-myristoylated); assay: cell-based or functional assay
[2] = molecular target: T2, myristoylated human Arf1 (myrArf1), …; assay: other fluorescence titration + other: inhibition of GAP activity; PH domain titrated; (i) rate of mant-GTP dissociation from myrArf1 on LUVs with 5 mol% PI(4,5)P2, followed by FRET from Arf tryptophan to mant-GTP, excess GTP 160 μM; (ii) IC50 of PH domain for GAP activity of 1 nM wt PZA on myrArf1·GTP below the Km; both served as proxies for the affinity; settings: both partners purified
[3] = molecular target: T1, ZA domain of ASAP1 (Arf GAP and ankyrin …); assay: NMR intermolecular paramagnetic relaxation enhancement (PRE); Cys159-MTSL myrArf1 with a non-hydrolysable GTP analog on nanodiscs, alone or in complex with wt PH (100 μM), and 100 μM isotopically labeled isolated ZA domain; settings: both partners purified

T2 sequence (P84077 whole entry, the tested form may be a part): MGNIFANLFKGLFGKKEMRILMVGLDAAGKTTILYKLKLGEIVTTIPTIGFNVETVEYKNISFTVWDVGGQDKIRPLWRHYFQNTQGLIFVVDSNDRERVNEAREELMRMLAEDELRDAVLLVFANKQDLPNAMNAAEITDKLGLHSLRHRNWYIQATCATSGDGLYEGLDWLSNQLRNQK

Binder | 'in trans' stimulation of GTP hydrolysis by ZA on myrArf1 (LUVs), relative to wt PH [1] | affinity relative to wt PH [2] | Kd [3]
B1 | 0.01 fold of wt PH | ~0.5 fold of wt PH | 
B2 |  |  | 100 to 1000 µM
